Measured values as given in US20150158912A1.

Assays:
[1] = molecular target: crystallized mutant mouse IL-17RB-SEFIR (RB-SEFIR-M; K364A, K367A, K368A and K369A quadruple mutant, residues 325-486) (mouse) (UniProt Q9JIP3); assay: SPR; printed as Ka
[2] = molecular target: wild type mouse IL-17RB-SEFIR (WT-RB-SEFIR) (mouse) (UniProt Q9JIP3); assay: SPR; printed as Ka
Sequence of wild type mouse IL-17RB-SEFIR (WT-RB-SEFIR) (mouse) (Q9JIP3 314-486): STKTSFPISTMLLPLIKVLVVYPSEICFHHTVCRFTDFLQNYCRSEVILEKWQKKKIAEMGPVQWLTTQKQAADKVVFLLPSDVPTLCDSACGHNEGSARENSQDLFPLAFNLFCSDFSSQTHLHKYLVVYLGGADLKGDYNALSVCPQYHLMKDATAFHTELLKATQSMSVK

Sequence of recombinant mouse Act1 SEFIR domain (mAct1-SEFIR, residues 391 to 537) (Q8N7N6 391-537): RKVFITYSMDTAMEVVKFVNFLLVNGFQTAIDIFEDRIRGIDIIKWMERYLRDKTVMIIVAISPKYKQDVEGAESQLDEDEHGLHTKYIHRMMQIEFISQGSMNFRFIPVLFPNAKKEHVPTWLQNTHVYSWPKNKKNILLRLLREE
Sequence of crystallized mutant mouse IL-17RB-SEFIR (RB-SEFIR-M; K364A, K367A, K368A and K369A quadruple mutant, residues 325-486) (mouse) (Q9JIP3 325-486 K364A/K367A/K368A/K369A): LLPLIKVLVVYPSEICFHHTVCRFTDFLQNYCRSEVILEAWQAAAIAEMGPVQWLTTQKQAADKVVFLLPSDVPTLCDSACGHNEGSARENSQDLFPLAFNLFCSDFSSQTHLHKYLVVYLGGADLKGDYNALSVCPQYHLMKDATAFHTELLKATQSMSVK

recombinant mouse Act1 SEFIR domain (mAct1-SEFIR, residues 391 to 537) (from UniProt Q8N7N6 391-537)
Kd [1]: 1500 nM | Kd [2]: 1400 nM
